In US20220033483A1 (GUAGNDONG FEIPENG BIOLOGICAL, published 2022):
Numbering of substitutions follows the chain as printed. One block for each binder: values may come before it.

Molecular target: T1, cTnI quality control product recombinant protein (human, UniProt P19429 1-210, limits assumed)
T1 construct: the assay paragraphs only say cTnI; also called cardiac troponin I; cTnI antigen
Experiment: AMC biosensor, antibody on sensor
Protocol: Operating process: it is equilibrated in Buffer 1 (PBST) for 60 s, the antibody is immobilized in an antibody solution for 300 s, incubated in Buffer 2 (PBST) for 180 s, bound in antigen solution for 420 s, dissociated in the Buffer 2 for 1200 s, 10 mM of GLY solution with pH 1.69 and Buffer 3 are used for sensor regeneration, and data is output.

T1 sequence (P19429 whole entry): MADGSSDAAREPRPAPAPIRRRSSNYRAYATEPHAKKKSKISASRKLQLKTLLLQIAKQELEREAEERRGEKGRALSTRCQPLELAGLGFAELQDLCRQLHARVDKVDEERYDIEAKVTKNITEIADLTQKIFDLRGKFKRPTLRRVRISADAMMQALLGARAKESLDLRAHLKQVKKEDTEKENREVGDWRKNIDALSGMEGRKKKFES

B1: Mutation 1-53 (antibody, V domains shown)
VH: QVQLQQSGTELAKPGASVKFSCKASGYTFSSYWMYWIKQRPGQGLEWIGYINPSTGHTDYNQRFKDKATLTADKSSSTAYMQLNSLTSEDSAVYYCARKYYGPFGMDYWGQGTSVTVSS
VL: EIFLTQSPAIMSASPGEKVTMTCSASTTVSYVHWYQQKSGTSPKRWIYDTSKLASGIPVRFSGSGSGTSYSLTISSMEAEDAATYYCQQWSTNPYTFGGGTKLEIKR
- Kd: 8 nM
- koff: 0.0004 s⁻¹
- kon: 50000 M⁻¹ s⁻¹

B4: Mutation 1-43 (antibody, V domains shown)
VH: B1 VH with S30T, R63K, Y101F
VL: B1 VL with T28S, N93Q
- Kd: 12.9 nM
- koff: 0.000368 s⁻¹
- kon: 28600 M⁻¹ s⁻¹

B5: Mutation 1-46 (antibody, V domains shown)
VH: B1 VH with S30T, I51L, T55S, R63K, K99R, Y101F
VL: B1 VL with T28S, T92S
- Kd: 5.57 nM
- koff: 0.000118 s⁻¹
- kon: 21200 M⁻¹ s⁻¹

B10: Mutation 1-42 (antibody, V domains shown)
VH: B1 VH with S30T, T55S, R63K, K99R, Y101W
VL: B1 VL with T27S, I47L, T92S
- Kd: 7.37 nM
- koff: 0.000362 s⁻¹
- kon: 49100 M⁻¹ s⁻¹

B11: Mutation 1-31 (antibody, V domains shown)
VH: B1 VH with S30T, S31T, R63K, K99R
VL: B1 VL with T27S, T28S, T92S
- Kd: 12.7 nM
- koff: 0.000365 s⁻¹
- kon: 24000 M⁻¹ s⁻¹

B12: Mutation 1-27 (antibody, V domains shown)
VH: B1 VH with S30T, I51L, T55S, R63K, Y101F
VL: B1 VL with T28S, T92S
- Kd: 9.42 nM
- koff: 0.000372 s⁻¹
- kon: 39500 M⁻¹ s⁻¹

B14: Mutation 1-30 (antibody, V domains shown)
VH: B1 VH with S30T, I51L, T55S, K99R, Y101F
VL: B1 VL with I47L, T92S
- Kd: 7.2 nM
- koff: 0.000258 s⁻¹
- kon: 35800 M⁻¹ s⁻¹

B15: Mutation 1-41 (antibody, V domains shown)
VH: B1 VH with K99R
VL: B1 VL with T28S, L53I, T92S, N93Q
- Kd: 3.27 nM
- koff: 6.06e-05 s⁻¹
- kon: 18500 M⁻¹ s⁻¹

B16: Mutation 1-37 (antibody, V domains shown)
VH: B1 VH with I51L, Y101F
VL: B1 VL with T28S, N93Q
- Kd: 8.01 nM
- koff: 0.000268 s⁻¹
- kon: 33400 M⁻¹ s⁻¹

B18: Mutation 1-19 (antibody, V domains shown)
VH: B1 VH with S30T, I51L, R63K, K99R
VL: B1 VL with T27S, T28S, T92S, N93Q
- Kd: 6.54 nM
- koff: 7.12e-05 s⁻¹
- kon: 10900 M⁻¹ s⁻¹

B20: Mutation 1-14 (antibody, V domains shown)
VH: B1 VH with S30T, I51L, R63K, K99R, Y101W
VL: B1 VL with T27S, I47L, N93Q
- Kd: 7.84 nM
- koff: 0.000217 s⁻¹
- kon: 27700 M⁻¹ s⁻¹

B21: Mutation 1-48 (antibody, V domains shown)
VH: B1 VH with I51L, K99R, Y101W
VL: B1 VL with T27S, L53I
- Kd: 6.6 nM
- koff: 8.58e-05 s⁻¹
- kon: 13000 M⁻¹ s⁻¹

B23: Mutation 1-45 (antibody, V domains shown)
VH: B1 VH with I51L, Y101W
VL: B1 VL with T27S, I47L, T92S, N93Q
- Kd: 3.7 nM
- koff: 9.65e-05 s⁻¹
- kon: 26100 M⁻¹ s⁻¹

B24: Mutation 1-13 (antibody, V domains shown)
VH: B1 VH with I51L, T55S, K99R
VL: B1 VL with T27S, T28S, L53I, N93Q
- Kd: 4.42 nM
- koff: 7.82e-05 s⁻¹
- kon: 17700 M⁻¹ s⁻¹

B26: Mutation 1-21 (antibody, V domains shown)
VH: B1 VH with I51L, Y101F
VL: B1 VL with T28S, L53I, T92S, N93Q
- Kd: 9.92 nM
- koff: 0.000262 s⁻¹
- kon: 26100 M⁻¹ s⁻¹

B28: Mutation 1-49 (antibody, V domains shown)
VH: B1 VH with S30T, S31T, I51L, T55S, R63K, Y101F
VL: B1 VL with T28S, I47L, T92S, N93Q
- Kd: 5.94 nM
- koff: 0.000195 s⁻¹
- kon: 32800 M⁻¹ s⁻¹

B29: Mutation 1-38 (antibody, V domains shown)
VH: B1 VH with S30T, I51L, T55S, R63K
VL: B1 VL with T27S, I47L, T92S
- Kd: 7.3 nM
- koff: 0.000223 s⁻¹
- kon: 30500 M⁻¹ s⁻¹

B30: WT 1-7 (antibody, V domains shown)
VH: B1 VH with G26D, S30T, S31T, I51L, D59E, R63K, K99R, G105A
VL: B1 VL with T28S, V32A, T50S, Q89N
- Kd: 28.6 nM
- koff: 0.000795 s⁻¹
- kon: 27800 M⁻¹ s⁻¹

B31: WT 1-3 (antibody, V domains shown)
VH: B1 VH with G26D, S30T, S31T, D59E, R63K, Y101F, G105A
VL: B1 VL with T28S, V32A, T50S, Q89N, T92S
- Kd: 10.8 nM
- koff: 0.000372 s⁻¹
- kon: 34400 M⁻¹ s⁻¹

B34: WT 1-5 (antibody, V domains shown)
VH: B1 VH with G26D, I51L, D59E, R63K, Y101W, G105A
VL: B1 VL with T27S, T28S, V32A, T50S, L53I, Q89N
- Kd: 48.6 nM
- koff: 0.0017 s⁻¹
- kon: 35000 M⁻¹ s⁻¹

B35: WT 1-1 (antibody, V domains shown)
VH: B1 VH with G26D, S31T, D59E, R63K, K99R, G105A
VL: B1 VL with T27S, T28S, V32A, T50S, L53I, Q89N
- Kd: 68.4 nM
- koff: 0.00165 s⁻¹
- kon: 24100 M⁻¹ s⁻¹

B36: WT 1-2 (antibody, V domains shown)
VH: B1 VH with G26D, S30T, T55S, D59E, K99R, Y101W, G105A
VL: B1 VL with T27S, V32A, I47L, T50S, Q89N, T92S, N93Q
- Kd: 28.5 nM
- koff: 0.000741 s⁻¹
- kon: 26000 M⁻¹ s⁻¹

B37: WT 1-8 (antibody, V domains shown)
VH: B1 VH with G26D, S31T, D59E, R63K, K99R, Y101W, G105A
VL: B1 VL with V32A, I47L, T50S, L53I, Q89N, N93Q
- Kd: 75.1 nM
- koff: 0.00221 s⁻¹
- kon: 29400 M⁻¹ s⁻¹

B38: WT 1-6 (antibody, V domains shown)
VH: B1 VH with G26D, S30T, I51L, T55S, D59E, K99R, Y101F, G105A
VL: B1 VL with T27S, V32A, I47L, T50S, Q89N
- Kd: 51.5 nM
- koff: 0.00131 s⁻¹
- kon: 25500 M⁻¹ s⁻¹

These reach a lower Kd. Values come first.

- Kd: 2.98 nM
- koff: 9.97e-05 s⁻¹
- kon: 33500 M⁻¹ s⁻¹
B7: Mutation 1-17 (antibody, V domains shown)
VH: B1 VH with Y101W
VL: B1 VL with T27S, T28S, L53I, T92S, N93Q

- Kd: 2.75 nM
- koff: 9.53e-05 s⁻¹
- kon: 34700 M⁻¹ s⁻¹
B2: Mutation 1-33 (antibody, V domains shown)
VH: B1 VH with R63K, Y101F
VL: B1 VL with T28S, L53I, T92S

- Kd: 2.6 nM
- koff: 4.92e-05 s⁻¹
- kon: 18900 M⁻¹ s⁻¹
B13: Mutation 1-35 (antibody, V domains shown)
VH: B1 VH with S30T, S31T, R63K, K99R, Y101W
VL: B1 VL with T27S, T28S, N93Q

- Kd: 2.08 nM
- koff: 3.31e-05 s⁻¹
- kon: 15900 M⁻¹ s⁻¹
B27: Mutation 1-26 (antibody, V domains shown)
VH: B1 VH with S30T, S31T, I51L, R63K, K99R, Y101W
VL: B1 VL with T27S, I47L, T92S

- Kd: 2.07 nM
- koff: 6.36e-05 s⁻¹
- kon: 30700 M⁻¹ s⁻¹
B33: Mutation 1-55 (antibody, V domains shown)
VH: B1 VH with S31T, I51L, T55S, R63K
VL: B1 VL
notes: T0002 combination 56 prints L/L

- Kd: 1.76 nM
- koff: 2.04e-05 s⁻¹
- kon: 11600 M⁻¹ s⁻¹
B25: Mutation 1-23 (antibody, V domains shown)
VH: B1 VH with S30T, Y101W
VL: B1 VL with T27S, T28S, T92S

- Kd: 1.63 nM
- koff: 7.3e-05 s⁻¹
- kon: 44900 M⁻¹ s⁻¹
B32: Mutation 1-54 (antibody, V domains shown)
VH: B1 VH with I51L, T55S, R63K, K99R, Y101F
VL: B1 VL with I47L, L53I, N93Q

- Kd: 1.38 nM
- koff: 2.3e-05 s⁻¹
- kon: 16600 M⁻¹ s⁻¹
B6: Mutation 1-20 (antibody, V domains shown)
VH: B1 VH with S31T, I51L, T55S, R63K, K99R, Y101W
VL: B1 VL with T27S, I47L, L53I, T92S, N93Q

- Kd: 1.16 nM
- koff: 2.1e-05 s⁻¹
- kon: 18100 M⁻¹ s⁻¹
B17: Mutation 1-15 (antibody, V domains shown)
VH: B1 VH with S30T, S31T, I51L, T55S, Y101F
VL: B1 VL with T28S, N93Q
notes: CDR-VL3 cell prints 'TQ', read as T/Q

- Kd: 1.09 nM
- koff: 1.11e-05 s⁻¹
- kon: 10200 M⁻¹ s⁻¹
B9: Mutation 1-50 (antibody, V domains shown)
VH: B1 VH with S30T, I51L, R63K, K99R, Y101W
VL: B1 VL with T92S

- Kd: 1.03 nM
- koff: 2.79e-05 s⁻¹
- kon: 27000 M⁻¹ s⁻¹
B22: Mutation 1-39 (antibody, V domains shown)
VH: B1 VH with S30T, S31T, I51L, R63K, Y101W
VL: B1 VL with T28S, N93Q

- Kd: 1.01 nM
- koff: 1.38e-05 s⁻¹
- kon: 13600 M⁻¹ s⁻¹
B3: Mutation 1-52 (antibody, V domains shown)
VH: B1 VH with S30T, S31T, K99R, Y101W
VL: B1 VL with T28S, L53I, T92S

- Kd: 0.96 nM
- koff: 1.52e-05 s⁻¹
- kon: 15800 M⁻¹ s⁻¹
B8: Mutation 1-29 (antibody, V domains shown)
VH: B1 VH with T55S, R63K, Y101W
VL: B1 VL with T27S, T28S, L53I, T92S

- Kd: 0.81 nM
- koff: 2.15e-05 s⁻¹
- kon: 26500 M⁻¹ s⁻¹
B19: Mutation 1-51 (antibody, V domains shown)
VH: B1 VH with S30T, S31T, K99R
VL: B1 VL with T28S, L53I, T92S, N93Q
